Tested on: MS2 coat protein
Test: apparent KD of MS2 coat protein; designed switch direction (-1 OFF switch, 1 ON switch): -1; higher = weaker reporter binding
In short: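 Designed RNA switches with common flanks were made on Illumina chips by stalled E. coli RNA polymerase. Titration with SNAP-549-labelled MS2 coat protein doubled from 0.7 or 1.5 nM up to 3 µM. Apparent KD is each design's median over clusters after curve-fitting normalised fluorescence.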

[1] = Eterna round: R95, input ligand: FMN 200 uM
[2] = Eterna round: R95, input ligand: microRNA oligo, concentration not stated
[3] = Eterna round: R95, input ligand: none
[4] = input ligand: microRNA oligo, concentration not stated

Row | Sequence | apparent KD of MS2 coat protein [2] [nM] | apparent KD of MS2 coat protein (input ligand: FMN 200 uM) [nM] | apparent KD of MS2 coat protein (input ligand: none) [nM] | other results
1 | UCAAGUUUUUUGUUUUUUAACAUGAGGAUCACCCAUGUAUUUUUAUAGUAUGUGUGAAUAAGAUCUCGUGGUCUUAU [JR_SV3TOV1_Sub099] (puzzle: Sensor v3, turn-off variant 1) | 78.1 |  |  | apparent KD of MS2 coat protein [1]: 31.8 nM; apparent KD of MS2 coat protein [3]: 36.5 nM
2 | UCAGGCUAUUAAACCGCCGACAUGAGGAUCACCCAUGUACUUCAUGCGCUAGCUUGCUCGUCUACCUCAAGGAUCCG [Eternabot (L2) Solution 24] (Eterna round: R97, puzzle: Sensor, turn-off variant 1) |  | 67.7 | 68.6 | 
3 | UCCAGCAUACGGAGAUCCAACAUGAGGAUCACCCAUGUCUGGAAAGCUUUUUGCUUGUCUUAUCCGUCUCUGUGUGU [Design #7] (Eterna round: R97, puzzle: Sensor, turn-off variant 1) |  | 32.7 | 35.8 | 
4 | UCCUCACAUGAGGAUCACCCAUGUCAGGAUAUCCAACAUGCUCCCAAAACCACGCAUCGGAGAAGGGACAUGCA [EX1 A.6] (Eterna round: R97, puzzle: Exclusion 1) |  | 21.7 | 17.7 | 
5 | UCCUCACAUGAGGAUCACCCAUGUUAGGAUAUCUUAGAGCGCGAAUGACAGUUCUUUAAGAGAAGGAACUGGGC [Exclusion 1 (MOD1.2 of Edarti)] (Eterna round: R97, puzzle: Exclusion 1) |  | 50.5 | 20.1 | 
6 | UCCUUAUCGGUCAGGAUAUACACCCGUUUCUCCUUGUAGAAGGGACAUGAGGAUCACCCAUGUACAGUACAUUU [alecazam66] (Eterna round: R97, puzzle: Brourd's mod of Exclusion 4) |  | 29.6 | 26.8 | 
7 | UCGAGGUCAGGAUAUACAUGAGGAUCACCCAUGUGGAAGUAAGGUAGGAGAAGAGUAGGUAGAAGGGACGAGAG [JR_Exclu3_Sub050] (puzzle: Exclusion 3) | 30.8 |  |  | 
8 | UCGCUGCGAGGAUAUACGUGCGCGCGCGCGCGCGCGCGCGUACAUGAGGAUCACCCAUGUAGAAGGCGCGCUGC [Apr-15 SS2-1] (puzzle: Exclusion 2) | 12.5 |  |  | 
9 | UCGCUGCGAGGAUAUACGUGCGCGCGCUCGCGUUCGCGCGUACAUGAGGAUCACCCAUGUAGAAGGCGCGCUGC [Apr-15 SS2-5] (puzzle: Exclusion 2) | 11.1 |  |  | 
10 | UCGGCGCGAGGAUAUACGUUUGCUUUUUAGGAUCGUUGCGUACAUGAGGAUCACCCAUGUAGAAGGCGCGCCGC [Apr-15 SS2-27] (puzzle: Exclusion 2) | 12.4 |  |  | 
11 | UCGUGAUUAGAGGAUAUAUUUUGAGUCAGAACAAUAGAAGGCUAAACAUGAGGAUCACCCAUGUAAAUGUGUAA [JR_Ex6_Sub061] (Eterna round: R97, puzzle: Exclusion 6) |  | 184 | 34.9 | 
12 | UCGUGGUAAAUCAGGUGAUGUCUGAUAGGAUGGACUUUGACAUGAGGAUCACCCAUGUUGCUUUUUGCCCGUCUUAA [JR_SV3TOV2_Sub044] (puzzle: Sensor v3, turn-off variant 2) | 27.3 |  |  | apparent KD of MS2 coat protein [1]: 16.1 nM; apparent KD of MS2 coat protein [3]: 15.2 nM
13 | UCUAAACAUGAGGAUCACCCAUGUGAGGAUAUGAUGCAGCAGUGGUCUACGCUGUGCAUCAGAAGGCGCAUGUG (puzzle: Exclusion 1) | 72.2 |  |  | apparent KD of MS2 coat protein [1]: 148 nM; apparent KD of MS2 coat protein [3]: 80.4 nM
14 | UCUGCCGCCGUGAGGAUAUGCCCGAAAAAACGCGGGCAGAAGGCACAUGAGGAUCACCCAUGUCCCGCGGUUUU [salish99_bmx4_r4_136] (Eterna round: R97, puzzle: Brourd's mod of Exclusion 4) |  | 31 | 15.8 | 
15 | UCUGUUAUGCGAGGAUAUCGACCAUUCCUCUUAACAUGAGGAUCACCCAUGUGCUAAACCUACAACGAGAAGGCGCUCAUACUC [JR_ExcNG2_Sub068] (Eterna round: R96, puzzle: Exclusion NG 2) |  | 156 | 143 | apparent KD of MS2 coat protein [4]: 102 nM
16 | UCUUUACAUGAGGAUCACCCAUGUCAGGAUAUCAACUUUUGGGACUUCGGAUAUAAGAUGAGAAGGGACACCGG [Eternabot (L2) Solution 53] (Eterna round: R97, puzzle: Exclusion 1) |  | 19.2 | 19.4 | 

Row | Sequence | apparent KD of MS2 coat protein [2] [nM] | apparent KD of MS2 coat protein (input ligand: FMN 200 uM) [nM] | apparent KD of MS2 coat protein (input ligand: none) [nM] | other results
17 | UGAAAGUGAGGAUAUCCAAUAUAUGACAUGAGGAUCACCCAUGUUUCCACUCGUACCUCCGGAGAAGGCACAAGGU [Ex5 #57] (Eterna round: R97, puzzle: Exclusion 5) |  | 25.5 | 29.4 | 
18 | UGAAAGUGAGGAUAUGGUGAGUAGUGCCUGAGCGCUGCUCACCAGAAGGCACAUGAGGAUCACCCAUGUAAAUG [Mat - Exclusion 4 - Mod of JL - D20] (puzzle: Exclusion 4) | 38.9 |  |  | 
19 | UGAAUGUGAGGAUAUGGUGAGUAGUGCCUAAGCGCUGCUCACCAGAAGGCACAUGAGGAUCACCCAUGUACUUG [Mat - Exclusion 4 - Mod of JL - D19] (puzzle: Exclusion 4) | 47.9 |  |  | 
20 | UGACUACAUGAGGAUCACCCAUGUCAGGAUAUGCCGUUAAAUUAACAUCAACAUACGGGUAGAAGGGACAGCGU [1st #5] (Eterna round: R97, puzzle: Exclusion 1) |  | 27.2 | 29.4 | 
21 | UGAGACUGAGGAUAUACUAGACUACAAAGUAGUCAGUGGGUACAUGAGGAUCACCCAUGUAGAAGGCAGCCUCG [Omei Repeat Sequence v1] (Eterna round: R97, puzzle: Exclusion 2) |  | 289 | 35.9 | 
22 | UGAGACUGAGGAUAUACUAGCCCAUAAAGUGGGUUGUGGGUACAUGAGGAUCACCCAUGUAGAAGGCAGCCUCG [Omei Repeat Sequence v4] (Eterna round: R97, puzzle: Exclusion 2) |  | 516 | 75.4 | 
23 | UGAGUGCUGCGAGGAUAUACAUGAGGAUCACCCAUGUAAACCUGUGAGGCUUUGCCUCACAGGAUGUAGAAGGCGCAGUACUCU [JL ENG2 1.16] (Eterna round: R96, puzzle: Exclusion NG 2) |  | 15.5 | 13.2 | apparent KD of MS2 coat protein [4]: 9.94 nM
24 | UGAUCACAUGAGGAUCACCCAUGUCAGGAUAUCGUCACUGGAGCUUCGGCUCCAGUGACGAGAAGGGACAUAAU [E1/3-A1] (Eterna round: R97, puzzle: Exclusion 1) |  | 77.4 | 141 | 
25 | UGAUCUAGGCGAGGAUAUACAUGAGGAUCACCCAUGUAAACGUGACAUGGAAACAUGUCACGUGUGUAGAAGGCGCCUAGAUCU [MOD2 ENG2 3.54 by JL] (Eterna round: R96, puzzle: Exclusion NG 2) |  | 15.7 | 13.2 | apparent KD of MS2 coat protein [4]: 10.8 nM
26 | UGAUCUUUUGUUAGGAUAUGCUGGGUUUUUUCUCAGCAGAAGGGACAUGAGGAUCACCCAUGUUCUCUCUUUUU [Magic-08] (puzzle: Brourd's mod of Exclusion 4) | 9.72 |  |  | 
27 | UGAUGACAUGAGGAUCACCCAUGUCAGGAUAUUGAAGUUGAAGUGAAAGCUUCGGCUUCGAGAAGGGACUGUCG [-29.3, -26.3 kcal, A 28% sequence 3] (Eterna round: R97, puzzle: Exclusion 1) |  | 29.5 | 25 | 
28 | UGAUUGUUUACCAGGUUAUACAUGAGGAUCACCCAUGUAGAUCCUACGUGCGCGUUGUUCCGCUCGUCUUAUUGCCA [Sensor-V1 #80] (Eterna round: R97, puzzle: Sensor, turn-off variant 1) |  | 22.6 | 24.8 | 
29 | UGCAGACGAGGAUAUAGAUUUAAGUACAUGAGGAUCACCCAUGUACAUAUGUAUUUAGAUUUAGAAGGCGUCUGCU [E5/16-A4] (Eterna round: R97, puzzle: Exclusion 5) |  | 28.5 | 29.8 | 
30 | UGCCGUAGAGGAUAUACAUUGAAUAAGAUUCAUGUAGAACUACAUGAGGAUCACCCAUGUAGAAGGCUAUGGCU [JL-ex2-4.38 Eli mod] (Eterna round: R97, puzzle: Exclusion 2) |  | 29.5 | 16.9 | 
31 | UGCGGGCUUUUGAGACCUCACAUGAGGAUCACCCAUGUGCUUGUCUUGUGGGUCGGUCGGUCGUUGGCUGGCUGGCU [-29.6, -52.1 kcal, A 10%] (Eterna round: R97, puzzle: Sensor, turn-off variant 1) |  | 18 | 17.8 | 
32 | UGCGGGCUUUUGAGACCUCACAUGAGGAUCACCCAUGUGCUUGUCUUGUGGGUGGGUAGGUCGUUGGCUGACUCACG [Sensor-V1 #98] (Eterna round: R97, puzzle: Sensor, turn-off variant 1) |  | 68.2 | 68.9 | 
